± gives the standard deviation of the averaged measurements. A value given as a limit tells only on which side of the number the result lay.

The data set can be described thus: total protein half-life in vivo (active degradation + dilution); higher = more stable protein.
Setting [1] is: E. coli NCM3722 delta-clpP delta-lon delta-hslV, growth: N-lim chemostat, doubling time 6 h.
[2] abbreviates: E. coli NCM3722 delta-clpP, growth: N-lim chemostat, doubling time 6 h.
[3] abbreviates: E. coli NCM3722 delta-hslV, growth: N-lim chemostat, doubling time 6 h.
The mark [4] stands for this setting: E. coli NCM3722 delta-lon, growth: N-lim chemostat, doubling time 6 h.
Where [5] appears, read: E. coli NCM3722 delta-smpB, growth: N-lim chemostat, doubling time 6 h.
[6] abbreviates: wild type E. coli NCM3722, growth: C-lim chemostat, doubling time 3 h.
Where [7] appears, read: wild type E. coli NCM3722, growth: C-lim chemostat, doubling time 6 h.
[8] abbreviates: wild type E. coli NCM3722, growth: C-lim chemostat, doubling time 12 h.
Setting [9] is: wild type E. coli NCM3722, growth: N-lim chemostat, doubling time 6 h.
Setting [10] is: wild type E. coli NCM3722, growth: N-lim chemostat, doubling time 12 h.
Where [11] appears, read: wild type E. coli NCM3722, growth: P-lim chemostat, doubling time 6 h.
Where [12] appears, read: wild type E. coli NCM3722, growth: P-lim chemostat, doubling time 12 h.

With “MNAWEVNFDGLVGLTHHYAGLSFGNEASTRHRFQVSNPRLAAKQGLLKMKALADAGFPQAVIPPHERPFIPVLRQLGFSGSDEQVLEKVARQAPHWLSSVSSASPMWVANAATIAPSADTLDGKVHLTVANLNNKFHRSLEAPVTESLLKAIFNDEEKFSVHSALPQVALLGDEGAANHNRLGGHYGEPGMQLFVYGREEGNDTRPSRYPARQTREASEAVARLNQVNPQQVIFAQQNPDVIDQGVFHNDVIAVSNRQVLFCHQQAFARQSQLLANLRARVNGFMAIEVPATQVSVSDTVSTYLFNSQLLSRDDGSMMLVLPQECREHAGVWGYLNELLAADNPISELKVFDLRESMANGGGPACLRLRVVLTEEERRAVNPAVMMNDTLFNALNDWVDRYYRDRLTAADLADPQLLREGREALDVLSQLLNLGSVYPFQREGGGNG”, the “total protein half-life in vivo” value under setting [1] was 4.1 ± 0.25 h; the “total protein half-life in vivo” value under setting [2] is 2.42 ± 0.32 h; the “total protein half-life in vivo” value under setting [3] is 2.8 ± 0.29 h; the “total protein half-life in vivo” value under setting [4] came to 2.88 ± 0.035 h; the “total protein half-life in vivo” value under setting [5] was determined as 2.75 ± 0.14 h; the “total protein half-life in vivo” value under setting [6] was 3.06 ± 0.31 h. The “total protein half-life in vivo” value by setting is: under setting [7], 5.17 ± 0.51 h; under setting [8], 8.64 ± 0.32 h; under setting [9], 2.74 ± 0.35 h; under setting [10], 3.749 ± 0.0089 h; under setting [11], 5.69 ± 0.31 h; under setting [12], 9.79 ± 1.5 h.
On to “MSTLEPAAQSKPPGGFKLWLSQLQMKHGRKLVIALPYIWLILLFLLPFLIVFKISLAEMARAIPPYTELMEWADGQLSITLNLGNFLQLTDDPLYFDAYLQSLQVAAISTFCCLLIGYPLAWAVAHSKPSTRNILLLLVILPSWTSFLIRVYAWMGILKNNGVLNNFLLWLGVIDQPLTILHTNLAVYIGIVYAYVPFMVLPIYTALIRIDYSLVEAALDLGARPLKTFFTVIVPLTKGGIIAGSMLVFIPAVGEFVIPELLGGPDSIMIGRVLWQEFFNNRDWPVASAVAIIMLLLLIVPIMWFHKHQQKSVGEHG”, for which the “total protein half-life in vivo” value was 6.86 h under setting [1]; 4.75 ± 1.4 h under setting [2]; 5 h under setting [5]; 5.16 ± 0.14 h under setting [7]; 12 ± 1.7 h under setting [8]; 5.38 h under setting [9]. In addition, the “total protein half-life in vivo” value is, setting by setting: under setting [10], 10.6 ± 0.24 h; under setting [11], 6.7 h; under setting [12], 13.2 ± 1.9 h.
Consider “MQRLFLLVAVMLLSGCLTAPPKEAARPTLMPRAQSYKDLTHLPAPTGKIFVSVYNIQDETGQFKPYPASNFSTAVPQSATAMLVTALKDSRWFIPLERQGLQNLLNERKIIRAAQENGTVAINNRIPLQSLTAANIMVEGSIIGYESNVKSGGVGARYFGIGADTQYQLDQIAVNLRVVNVSTGEILSSVNTSKTILSYEVQAGVFRFIDYQRLLEGEVGYTSNEPVMLCLMSAIETGVIFLINDGIDRGLWDLQNKAERQNDILVKYRHMSVPPES [P0AEA2]”, for which, under setting [10], the “total protein half-life in vivo” value came to 4.39 h.
For “MASTARSLRYALAILTTSLVTPSVWAHAHLTHQYPAANAQVTAAPQAITLNFSEGVETGFSGAKITGPKNENIKTLPAKRNEQDQKQLIVPLADSLKPGTYTVDWHVVSVDGHKTKGHYTFSVK [P0AA57]”, the “total protein half-life in vivo” value by setting is: under setting [1], 5.53 h; under setting [3], above 8 h; under setting [4], 5.82 h; under setting [5], 4.84 h; under setting [6], 3.06 h; under setting [7], 5.46 ± 0.25 h. Besides, the “total protein half-life in vivo” value is, setting by setting: under setting [8], 9.96 ± 0.3 h; under setting [9], 5.82 ± 0.43 h; under setting [10], 9.82 ± 0.3 h; under setting [11], 4.82 h; under setting [12], 9.37 ± 0.95 h.
For the sequence “MTIYFINWVADYELKMIQYLKKKYKIKNITTPKKYNWINKKISKIGMDNAWLGRLFIKHYLNDIKKDDIIIINDSVVNKGINKQILKNINCHKVLLLRNTVGEDFILDNANYFDIIYDFEHRFIGNEKIKAIEQFFPIGMDEIRNYSLSDKNNSQPICFFLGRDKGRLQIINELAERLTTLGCKLDFNVVKDKTSSTTSKYLIEKQISYEENIRRTLNANIIVDITKENQSGWTLRILEALFFNKKLITNNINVFGSEIYSESRFFIIGHDDWDKLEYFINSSVKPMDYDSLYKFSPDKMMSTIVSDFIDK”, the “total protein half-life in vivo” value by setting is: under setting [1], 7.07 ± 1.2 h; under setting [3], 5.4 ± 0.26 h; under setting [5], 4.651 ± 0.02 h; under setting [6], 2.87 ± 0.037 h; under setting [7], 4.87 ± 0.59 h; under setting [8], 9.41 ± 2.8 h. Also, the “total protein half-life in vivo” value under setting [9] came out at 5.54 ± 0.49 h, the “total protein half-life in vivo” value under setting [10] worked out at 10.8 ± 2.5 h, the “total protein half-life in vivo” value under setting [11] was determined as 4.59 ± 0.58 h and the “total protein half-life in vivo” value under setting [12] came to 10.1 ± 1 h.
Take “MMSLAWPLFRVTEQAALAAWPQTGCGDKNKIDGLAVTAMRQALNDVAFRGRVVIGEGEIDHAPMLWIGEEVGKGDGPEVDIAVDPIEGTRMVAMGQSNALAVMAFAPRDSLLHAPDMYMKKLVVNRLAAGAIDLSLPLTDNLRNVAKALGKPLDKLRMVTLDKPRLSAAIEEATQLGVKVFALPDGDVAASVLTCWQDNPYDVMYTIGGAPEGVISACAVKALGGDMQAELIDFCQAKGDYTENRQIAEQERKRCKAMGVDVNRVYSLDELVRGNDILFSATGVTGGELVNGIQQTANGVRTQTLLIGGADQTCNIIDSLH”: the “total protein half-life in vivo” value under setting [1] was 3.96 h.
For the sequence “MIEVKHLKTLQALRNCGSLAAAAATLHQTQSALSHQFSDLEQRLGFRLFVRKSQPLRFTPQGEILLQLANQVLPQISQALQACNEPQQTRLRIAIECHSCIQWLTPALENFHKNWPQVEMDFKSGVTFDPQPALQQGELDLVMTSDILPRSGLHYSPMFDYEVRLVLAPDHPLAAKTRITPEDLASETLLIYPVQRSRLDVWRHFLQPAGVSPSLKSVDNTLLLIQMVAARMGIAALPHWVVESFERQGLVVTKTLGEGLWSRLYAAVRDGEQRQPVTEAFIRSARNHACDHLPFVKSAERPTYDAPTVRPGSPARL [P0A9F9]”, the “total protein half-life in vivo” value runs as follows: under setting [1], 5.1817 ± 0.0019 h; under setting [2], 1.5 ± 0.033 h; under setting [3], 0.933 ± 0.25 h; under setting [4], 2.88 ± 0.57 h; under setting [5], 1.1 ± 0.09 h; under setting [6], 0.811 ± 0.024 h. Besides, the “total protein half-life in vivo” value runs as follows: under setting [7], 1.17 ± 0.17 h; under setting [8], 1.08 ± 0.34 h; under setting [9], 1.14 ± 0.14 h; under setting [10], 1.81 ± 0.27 h; under setting [11], 0.609 h; under setting [12], 1.87 h.

The values are drawn from the supplement of paper PMC11246515.
